Data on 2 molecules can be found in patent US9433687B2, “Anti-Notch3 antibodies and antibody-drug conjugates” (Pfizer Inc., priority 2012, dated 2016).

In general, EC50 refers to the concentration needed to bring the measured effect to its halfway point.

Assay [1] deals with T1, full-length human Notch3 expressed on the cell surface of U2OS/hNotch3 cells (Homo sapiens, UniProt Q9UM47).
T1 construct: U-2 OS cells stably over-expressing human or mouse full length Notch3 protein on cell surface; expressed in transfected cells; host or cells: U-2 OS (human osteosarcoma)
Description: Cell-based ELISA, U2OS/hNotch3 cells. To be noted: Table 29; two value columns; LB = lacked binding. Here is the method:
(§1) Humanized hu28 and hu75, and rat-human chimeric, ch28 and ch75, anti-Notch3 antibodies were screened for cell surface Notch3 binding in a cell-based ELISA. U-2 OS cells stably over-expressing human or mouse full length Notch3 protein on cell surface (hereinafter U2OS/hNotch3 and U2OS/mNotch3, respectively) were plated at 50,000 cells/well in 96 well plates (white opaque, BD/VWR) the day before ELISA assay. On the day of the ELISA, culture media was removed from wells and serially diluted (1:3 in blocking buffer) antibody solutions were applied to the plate. Plates were incubated at room temperature for 2 hours before being washed with PBS-Mg/Ca. HRP-conjugated secondary antibody was then applied and incubated with cells for 1 hour as described above for recombinant protein ELISA. Plates were washed with PBS-Mg/Ca before being developed with Pico-Chemiluminescent developing kit (Thermal Scientific), and chemiluminescence measurements were performed per manufacturer's instructions. Data plotting and analyses were performed with Microsoft Excel and Graphpad-Prism software.
Unconjugated anti-Notch3 antibodies, anti-Notch3 ADCs and a negative control antibody (huNeg8.8) were screened for cell surface binding activity to Notch3 expressing cell lines in a cell-based ELISA. […]
For orientation: ELISA stands for enzyme-linked immunosorbent assay.

Another assay addresses T2, MDA-MB-468/hNotch3 (Homo sapiens, UniProt Q9UM47).
T2 construct: cell lines engineered to over-express full length human Notch3 protein: MDA-MB-468/hNotch3 and U2OS/hNotch3; expressed in transfected cells; host or cells: MDA-MB-468
Description: Flow cytometry (FACS) binding, MDA-MB-468/hNotch3. To be noted: 4 μg/mL antibody. The procedure: (§2) Unconjugated anti-Notch3 antibodies, hu28 and hu75, were examined for cell surface binding activity to Notch3 expressing cell lines by flow cytometry. Fluorescence activated cell sorting (FACS) analysis was conducted according to standard procedures. Cells were rinsed in HBSS with calcium chloride and magnesium chloride (herein termed HBSS++), harvested using trypsin without EDTA and neutralized with medium containing FBS. Cells were incubated on ice for 30 minutes with 4 μg/mL anti-Notch3 antibodies, hu28 and hu75, in HBSS++containing 3% HICS (heat-inactivated calf serum). Cells were washed three times with cold HBSS++, 3% HICS buffer. Cells were incubated in allophycocyanin-conjugated AffiniPure F(ab′)2 fragment goat anti-human IgG, Fc fragment secondary antibody (Jackson ImmunoResearch Laboratories, Inc., West Grove, Pa.) at 10 μg/mL for 30 minutes on ice in the dark. Cells were washed once with cold HBSS++/3% HICS buffer. Cells were resuspended in HBSS-++/3% HICS, 25 mM HEPES, 1 mM MgCl2 and 25 μg/ml DNaseI. 7-AAD (7-Amino-Actinomycin D) was added for exclusion of nonviable cells. Live cells were analyzed on a BD FACSCalibur flow cytometer (BD Biosciences, San Jose, Calif.). Mean fluorescence intensity (MFI) from channel FL-4 was calculated with FlowJo flow cytometry analysis software (Ashland, Oreg.).
For orientation: Flow cytometry measures light scatter and fluorescence of single cells or particles in a stream.

A further assay concerns the target T3, OVCAR3 (Homo sapiens, UniProt Q9UM47).
T3 construct: Notch3 endogenously expressing cells MDA-MB-468, HCC2429 and OVCAR3; endogenous in cells; host or cells: OVCAR3
Description: Flow cytometry (FACS) binding, OVCAR3. To be noted: 4 μg/mL antibody. Here is the method: as §2

The test system of a further assay is HCC2429 (lung cancer). In words: In vitro cytotoxicity (MTS), HCC2429. To be noted: HCC2429; data not shown. It counts as cell-based, human. The essentials: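 Cells with endogenous Notch3 cultured four days with increasing concentrations of anti-Notch3 ADCs (chimeric or humanized antibodies with various linker-payloads, including cysteine-mutant conjugates); non-targeted ADCs served as specificity controls. Viability by MTS; IC50 from logistic non-linear regression, expressed as ng Ab/mL, with DAR given.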

Assay [2] concerns the target T4, mouse Notch3 expressed on the cell surface of U2OS/mNotch3 cells (Mus musculus, UniProt Q61982).
T4 construct: U-2 OS cells stably over-expressing human or mouse full length Notch3 protein on cell surface; expressed in transfected cells; host or cells: U-2 OS (human osteosarcoma)
Description: Cell-based ELISA, U2OS/mNotch3 cells. To be noted: Table 3; N/B = non-binding. Here is the method: as §1, with “Plates were washed with PBS-Mg/Ca before being developed with Pico-Chemiluminescent developing kit (Thermal Scientific), and chemiluminescence measurements were performed per manufacturer's instructions.” left out

Several values for one entry are separate records, joined by “and”; a condition that tells them apart may be missing. Equal values may be shown once.

T1 sequence (Q9UM47 40-2321): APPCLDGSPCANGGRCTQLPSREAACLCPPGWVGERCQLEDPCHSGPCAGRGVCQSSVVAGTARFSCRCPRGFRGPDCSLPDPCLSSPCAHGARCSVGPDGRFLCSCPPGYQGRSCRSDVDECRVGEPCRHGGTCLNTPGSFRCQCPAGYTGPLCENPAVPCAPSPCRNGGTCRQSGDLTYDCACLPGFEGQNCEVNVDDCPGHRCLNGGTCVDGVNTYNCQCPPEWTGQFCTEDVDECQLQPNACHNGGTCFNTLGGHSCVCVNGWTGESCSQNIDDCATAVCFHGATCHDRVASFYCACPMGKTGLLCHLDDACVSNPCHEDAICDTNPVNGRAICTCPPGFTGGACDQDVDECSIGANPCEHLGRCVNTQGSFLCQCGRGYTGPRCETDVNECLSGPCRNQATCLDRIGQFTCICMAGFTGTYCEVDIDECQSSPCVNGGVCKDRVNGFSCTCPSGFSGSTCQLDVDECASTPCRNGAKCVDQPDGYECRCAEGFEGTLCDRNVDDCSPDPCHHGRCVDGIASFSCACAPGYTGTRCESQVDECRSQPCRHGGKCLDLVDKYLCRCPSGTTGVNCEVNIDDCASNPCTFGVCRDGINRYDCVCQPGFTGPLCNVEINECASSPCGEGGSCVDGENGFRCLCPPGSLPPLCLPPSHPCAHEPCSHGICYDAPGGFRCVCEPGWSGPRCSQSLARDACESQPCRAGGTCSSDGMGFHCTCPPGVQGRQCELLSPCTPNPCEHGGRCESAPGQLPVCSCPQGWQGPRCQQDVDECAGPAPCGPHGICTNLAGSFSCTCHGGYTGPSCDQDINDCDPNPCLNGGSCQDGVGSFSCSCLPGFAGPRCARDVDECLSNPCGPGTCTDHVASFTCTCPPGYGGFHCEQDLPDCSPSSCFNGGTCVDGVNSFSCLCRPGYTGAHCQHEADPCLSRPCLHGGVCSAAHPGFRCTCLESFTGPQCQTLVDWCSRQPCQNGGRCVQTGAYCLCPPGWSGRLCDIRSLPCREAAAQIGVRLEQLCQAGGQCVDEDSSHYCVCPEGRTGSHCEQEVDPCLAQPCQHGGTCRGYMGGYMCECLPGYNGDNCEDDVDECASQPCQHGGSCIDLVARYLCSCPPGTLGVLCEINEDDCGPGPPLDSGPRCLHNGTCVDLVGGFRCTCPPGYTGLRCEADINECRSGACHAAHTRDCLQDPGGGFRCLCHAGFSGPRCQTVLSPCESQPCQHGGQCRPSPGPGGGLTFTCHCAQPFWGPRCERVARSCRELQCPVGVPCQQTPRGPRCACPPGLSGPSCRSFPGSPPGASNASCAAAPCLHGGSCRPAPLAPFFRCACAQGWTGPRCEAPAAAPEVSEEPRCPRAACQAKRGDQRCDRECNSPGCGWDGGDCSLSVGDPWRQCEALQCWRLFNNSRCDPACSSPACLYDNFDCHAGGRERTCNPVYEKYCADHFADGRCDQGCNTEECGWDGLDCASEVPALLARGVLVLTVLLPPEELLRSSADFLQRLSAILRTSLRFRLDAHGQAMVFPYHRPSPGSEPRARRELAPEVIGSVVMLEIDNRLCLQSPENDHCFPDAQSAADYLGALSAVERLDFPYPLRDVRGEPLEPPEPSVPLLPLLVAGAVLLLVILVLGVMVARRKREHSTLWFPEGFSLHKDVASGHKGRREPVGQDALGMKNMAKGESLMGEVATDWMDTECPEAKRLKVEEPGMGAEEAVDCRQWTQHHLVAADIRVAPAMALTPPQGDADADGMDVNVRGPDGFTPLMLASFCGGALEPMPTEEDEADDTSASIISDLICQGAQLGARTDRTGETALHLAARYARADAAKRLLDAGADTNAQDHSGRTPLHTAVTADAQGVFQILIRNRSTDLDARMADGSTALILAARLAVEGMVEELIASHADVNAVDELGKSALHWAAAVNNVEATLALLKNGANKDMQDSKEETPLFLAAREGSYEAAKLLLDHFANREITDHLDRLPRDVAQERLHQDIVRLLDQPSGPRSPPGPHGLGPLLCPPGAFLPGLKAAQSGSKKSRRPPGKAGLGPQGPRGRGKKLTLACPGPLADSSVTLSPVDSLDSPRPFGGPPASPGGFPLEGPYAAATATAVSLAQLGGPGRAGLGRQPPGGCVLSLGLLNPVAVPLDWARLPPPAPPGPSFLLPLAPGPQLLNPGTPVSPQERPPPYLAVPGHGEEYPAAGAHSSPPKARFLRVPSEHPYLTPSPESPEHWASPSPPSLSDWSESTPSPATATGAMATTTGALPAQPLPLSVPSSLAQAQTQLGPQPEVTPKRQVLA
T2 sequence (Q9UM47 40-2321): as above
T3 sequence (Q9UM47 40-2321): as above
T4 sequence (Q61982 40-2318): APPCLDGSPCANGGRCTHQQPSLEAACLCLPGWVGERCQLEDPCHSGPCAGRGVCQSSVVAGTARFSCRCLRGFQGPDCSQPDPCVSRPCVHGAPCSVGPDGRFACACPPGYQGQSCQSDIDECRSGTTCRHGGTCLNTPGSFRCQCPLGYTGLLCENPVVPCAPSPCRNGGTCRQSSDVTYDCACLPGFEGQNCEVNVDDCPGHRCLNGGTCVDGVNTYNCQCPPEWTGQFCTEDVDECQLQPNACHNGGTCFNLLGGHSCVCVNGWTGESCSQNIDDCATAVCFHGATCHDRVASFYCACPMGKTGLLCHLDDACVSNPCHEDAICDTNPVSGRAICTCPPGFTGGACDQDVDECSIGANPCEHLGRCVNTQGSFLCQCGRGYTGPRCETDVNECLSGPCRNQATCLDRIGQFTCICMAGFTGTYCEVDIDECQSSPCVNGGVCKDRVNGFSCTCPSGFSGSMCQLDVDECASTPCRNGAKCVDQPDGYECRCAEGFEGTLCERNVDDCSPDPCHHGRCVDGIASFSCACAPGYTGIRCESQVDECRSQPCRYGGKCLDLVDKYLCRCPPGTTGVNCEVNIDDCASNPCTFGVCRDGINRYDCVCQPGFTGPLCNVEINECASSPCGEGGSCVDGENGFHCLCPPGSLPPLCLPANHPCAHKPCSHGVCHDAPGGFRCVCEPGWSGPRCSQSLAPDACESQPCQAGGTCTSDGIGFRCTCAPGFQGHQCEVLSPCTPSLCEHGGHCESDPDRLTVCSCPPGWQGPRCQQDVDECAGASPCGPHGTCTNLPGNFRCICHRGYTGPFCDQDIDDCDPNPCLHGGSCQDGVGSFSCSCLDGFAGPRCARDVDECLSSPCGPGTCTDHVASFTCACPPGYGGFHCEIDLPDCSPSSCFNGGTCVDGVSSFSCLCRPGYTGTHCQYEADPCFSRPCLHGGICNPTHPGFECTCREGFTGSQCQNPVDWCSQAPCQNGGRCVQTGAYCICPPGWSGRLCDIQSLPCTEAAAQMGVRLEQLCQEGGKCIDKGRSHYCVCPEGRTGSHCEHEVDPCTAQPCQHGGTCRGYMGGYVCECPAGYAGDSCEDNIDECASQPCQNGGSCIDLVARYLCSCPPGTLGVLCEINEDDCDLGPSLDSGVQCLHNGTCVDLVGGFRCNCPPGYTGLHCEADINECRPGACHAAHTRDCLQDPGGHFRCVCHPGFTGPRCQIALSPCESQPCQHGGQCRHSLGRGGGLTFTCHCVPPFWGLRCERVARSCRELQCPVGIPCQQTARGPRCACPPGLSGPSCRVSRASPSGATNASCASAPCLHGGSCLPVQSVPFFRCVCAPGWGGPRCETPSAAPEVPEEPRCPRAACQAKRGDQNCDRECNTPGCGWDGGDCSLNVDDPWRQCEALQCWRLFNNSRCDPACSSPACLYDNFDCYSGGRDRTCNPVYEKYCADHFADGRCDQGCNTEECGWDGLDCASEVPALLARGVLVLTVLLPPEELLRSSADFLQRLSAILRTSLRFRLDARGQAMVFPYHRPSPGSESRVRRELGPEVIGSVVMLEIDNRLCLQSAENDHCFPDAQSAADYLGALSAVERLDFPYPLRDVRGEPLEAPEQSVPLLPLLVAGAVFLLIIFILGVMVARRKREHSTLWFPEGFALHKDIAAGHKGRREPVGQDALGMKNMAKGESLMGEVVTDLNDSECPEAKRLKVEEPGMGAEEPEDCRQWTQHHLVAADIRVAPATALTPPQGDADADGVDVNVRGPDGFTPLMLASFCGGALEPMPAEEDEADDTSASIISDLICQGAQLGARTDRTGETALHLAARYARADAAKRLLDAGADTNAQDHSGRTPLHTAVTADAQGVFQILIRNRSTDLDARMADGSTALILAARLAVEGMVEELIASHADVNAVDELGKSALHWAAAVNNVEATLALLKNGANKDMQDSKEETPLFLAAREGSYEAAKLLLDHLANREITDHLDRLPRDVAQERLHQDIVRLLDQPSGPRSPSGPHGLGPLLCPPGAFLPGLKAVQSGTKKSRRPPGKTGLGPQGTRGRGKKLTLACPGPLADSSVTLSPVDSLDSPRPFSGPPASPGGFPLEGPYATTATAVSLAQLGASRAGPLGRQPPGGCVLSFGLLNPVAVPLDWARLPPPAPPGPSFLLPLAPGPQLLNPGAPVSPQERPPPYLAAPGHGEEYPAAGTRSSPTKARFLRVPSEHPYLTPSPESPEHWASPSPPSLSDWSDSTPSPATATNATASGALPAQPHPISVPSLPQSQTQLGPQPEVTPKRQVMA

B1: hu28 VH1.0/VL1.0: humanized r28 variant VH1.0/VL1.0, anti-Notch3 antibody (VH SEQ ID NO: 13, VL SEQ ID NO: 25) (antibody, V domains shown)
VH: EVQLVESGGGLVQPGGSLRLSCAASGFTFRDYGMTWVRQAPGKGLEWVAYISSGSNYIYYAEAVKGRFTISRDNAKNSLYLQMNSLRAEDTAVYYCARRGPFVLDAWGQGTLVTVSS
VL: DIQMTQSPSSLSASVGDRVTITCKASQSINRYLHWYQQKPGKAPKLLIYNANGLQTGVPSRFSGSGSGTDFTLTISSLQPEDFATYYCLQHNTWPDTFGGGTKVEIK
For the molecule B1, the EC50 in assay [1] is 300 pM and 260 pM. The MFI was found to be 1192 in the assay with MDA-MB-468/hNotch3 and 116 with OVCAR3. The “effect of unconjugated antibody on viability” value in the assay on HCC2429 (lung cancer) is “did not affect the viability”.

B2: ch75: rat-human chimeric anti-Notch3 antibody 75, rat variable regions fused with human IgG1 and human kappa (antibody, V domains shown)
VH: QVKLLQSGAALVKPGASVKMSCKASGYAFTDYWVTWVKQSHGKSLEWIGEISPNSGGTNFNEKFKGKATLTVDKSTSTAYMELSRLTSEDSAIYYCTRGEIRYNWFAYWGQGTLVTVSS
VL: NIVMTQSPKSMSISVGDRVTMNCKASQNVGNNIAWYQQKPGQSPKLLIYYASNRYTGVPDRFTGGGYGTDFTLTINSMQAEDAAFYYCQRLYNSPFTFGSGTKLEIK
In the case of B2, in assay [2], the “EC50 (nM) cell surface Notch3 binding ELISA, Full-length Mouse Notch3” value is reported as “N/B”.
